Laboratory results from patent US10501552B2, “Multivalent molecules comprising DR5-binding domains” (MacroGenics, Inc., priority 2015, dated 2019).
Each block holds one molecule with its values, some of them ahead of it.

Key:
NCI-N87 [1] = assay: […]-GLO cell viability assay with vorinostat; assay type: cell-based; conditions: NCI-N87 (Stomach); 1 μg/ml + 1 μM Vorinostat
A549 = assay: […]-GLO cell viability assay with vorinostat; assay type: cell-based, human; conditions: A549 (Lung); 1 μg/ml + 10 μM Vorinostat
[2] = tested on: normal tissue (colon, liver, lung, pancreas, kidney, heart); assay: tissue staining with labeled molecule; assay type: binding; conditions: 5 μg/mL
Source text: (§1) The results presented in FIGS. 15A-15B, 16, and Table 10, thus indicate that a tetravalent DR5-Binding Molecule (bispecific for two epitopes of DR5) was capable of specifically binding to cancer cells.

lung cancer tissue = assay: tissue staining with labeled molecule; assay type: binding; conditions: 5 μg/mL
Source text: as §1

colon cancer tissue = assay: tissue staining with labeled molecule; assay type: binding; conditions: 5 μg/mL
Source text: as §1

PC3 = assay: […]-GLO cell viability assay with vorinostat; assay type: cell-based; conditions: PC3 (Prostate); 1 μg/ml + 1 μM Vorinostat
Calu3 = assay: […]-GLO cell viability assay with vorinostat; assay type: cell-based; conditions: Calu3 (Lung); 1 μg/ml + 1 μM Vorinostat
MDA-MB-361 = assay: […]-GLO cell viability assay with vorinostat; assay type: cell-based; conditions: MDA-MB-361 (Breast); 1 μg/ml + 10 μM Vorinostat
[3] = tested on: target tumor cells (A549, SKMES, DU145, A375, SKBR3, JIMT); assay: LDH release cytotoxicity with PBMC, comparison of DR5×CD3 diabodies; assay type: cell-based, human; conditions: VL and VH Domains tested as DR5×CD3 mAb 2 diabodies, 24 hours, 20:1
Experimental: In order to make such a comparison, a bispecific DR5×CD3 diabody having the structure shown in FIG. 1 containing the VL and VH Domains of these anti-DR5 antibodies and the VL and VH Domains of CD3 mAb 2 were prepared essentially as described above. The first and second The prepared diabodies were designated “DR5 mAb 1×CD3 mAb 2”; “DR5 mAb 2×CD3 mAb 2”; “DR5 mAb 3×CD3 mAb 2”; and “DR5 mAb 4×CD3 mAb 2”.
Target tumor cells were incubated with one of these diabodies or with the control diabody (4-4-20×CD3 mAb 2) in the presence of peripheral blood mononuclear cells (PBMC) and target tumor cells for 24 hours at an effector to target cell ratio of 20:1. The percentage cytotoxicity was determined by measuring the release of lactate dehydrogenase (LDH) into the media by damaged cells.
The employed target tumor cells were: A549 adenocarcinomic human alveolar basal epithelial cells (FIG. 10A), SKMES human lung cancer cells (FIG. 10B), DU145 human prostate cancer cells (FIG. 10C), A375 human malignant melanoma cells (FIG. 10D), SKBR3 human HER2-overexpressing breast carcinoma cells (FIG. 10E), and JIMT human breast carcinoma cells (FIG. 10F).

HPAFII = assay: […]-GLO cell viability assay with vorinostat; assay type: cell-based; conditions: HPAFII (Pancreas); 1 μg/ml + 10 μM Vorinostat
SKOV3 = assay: […]-GLO cell viability assay with vorinostat; assay type: cell-based; conditions: SKOV3 (Ovary); 1 μg/ml + 1 μM Vorinostat
Hs746T = assay: […]-GLO cell viability assay with vorinostat; assay type: cell-based; conditions: Hs746T (Stomach); 1 μg/ml + 10 μM Vorinostat
DR5-Fc fusion = assay: binding to immobilized DR5-Fc fusion in presence of TRAIL; design: species or system human; conditions: for amount of immobilized biotinylated antibody: 2 μg/mL biotinylated, 1 μg/mL DR5-Fc fusion coat
Experimental: The amount of immobilized biotinylated antibody was assessed.

SW48 = assay: MTS cell proliferation assay; assay type: cell-based; conditions: SW48 (Colon); 1 μg/ml, ±10 μg/ml αmFc; two days
Experimental: (§2) Cell lines obtained from ATCC were cultured under standard tissue culture conditions. Each cell line was plated at ˜2×10^4 cells/well (in 96-well plates), and incubated overnight in F12/DMEM media supplemented with 10% FBS. […] Cell viability was determined using Promega CellTiter 96® AQeous Non-Radioactive Cell Proliferation Assay (Cat # G5430) essentially as described in the manufacturer's instructions to assay the amount of soluble formazan produced by cellular reduction of the MTS, which is a measure of the number of viable cells in the culture. Briefly, MTS/PMS regent was added to the wells and the absorbance at 490 nm (referenced at […]) was read in a Molecular Devices ThermoMax microplate reader.
(§3) Similar studies were performed over a range of anti-DR5 mAb concentrations from ˜10^−3 nM to ˜10^2 nM. The data for COLO205 cells is provided in FIG. 13, and are representative of cell lines sensitive to the antibodies of the invention.
(§4) The cytotoxicity of tetravalent DR5-Binding Molecules of the present invention was investigated. […] His-tagged TRAIL (R&D systems) was used as a positive control.
(§5) Similar studies were performed over a range of anti-DR5 mAb concentrations from ˜10^−3 nM to ˜10^2 nM.

CaKi2 = assay: MTS cell proliferation assay; assay type: cell-based; conditions: CaKi2 (Kidney); 1 μg/ml, ±10 μg/ml αmFc; two days
Experimental: as §2, §3, §4, §5

MCF7 = assay: MTS cell proliferation assay; assay type: cell-based; conditions: MCF7 (Breast); 1 μg/ml, ±10 μg/ml αmFc; two days
Experimental: as §2, §3, §4, §5

HT29 = assay: MTS cell proliferation assay; assay type: cell-based; conditions: HT29 (Colon); 1 μg/ml, ±10 μg/ml αmFc; two days
Experimental: as §2, §3, §4, §5

NCI-N87 [4] = assay: MTS cell proliferation assay; assay type: cell-based; conditions: NCI-N87 (Stomach); 1 μg/ml, ±10 μg/ml αmFc; two days
Experimental: as §2, §3, §4, §5

COLO205 = assay: MTS cell proliferation assay; assay type: cell-based; conditions: COLO205 (Colon); 1 μg/ml, ±10 μg/ml αmFc; two days
Experimental: as §2, §3, §4, §5
His-tagged TRAIL (R&D systems) was used as a positive control.

LNCap = assay: […]-GLO cell viability assay with vorinostat; assay type: cell-based, human; conditions: LNCap (Prostate); 1 μg/ml + 10 μM Vorinostat
[5] = molecular target: cynomolgus monkey DR5 (His-tagged); assay: Biacore analysis of binding kinetics; design: ka / kd: unit not given here; conditions: tested as DR5×CD3 mAb 2 diabody
Experimental: Bispecific DR5×CD3 diabodies were incubated with His-tagged DR5 and the kinetics of binding was determined via Biacore analysis. […] FIG. 6, Panels A-D show the results for human DR5. FIG. 6, Panels E-H show the results for cynomolgus monkey DR5.

DR5-Fc fusion, sequence (as listed by the source): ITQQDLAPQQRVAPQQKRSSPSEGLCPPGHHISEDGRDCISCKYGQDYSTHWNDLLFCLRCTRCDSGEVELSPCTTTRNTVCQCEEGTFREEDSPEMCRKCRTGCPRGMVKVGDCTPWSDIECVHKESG

effect of histidine tagged TRAIL on amount bound to immobilized DR5-Fc (DR5-Fc fusion): not affected | amount of immobilized biotinylated antibody (DR5-Fc fusion; 20 μg/mL TRAIL-His): 2.052 | amount of immobilized biotinylated antibody (DR5-Fc fusion; Buffer): 2.052 | Kd [5]: 0.42 nM | ka [5]: 2.4 × 10^5 | kd [5]: 1.0 × 10^−4
B1: DR5 mAb 2: murine anti-human DR5 monoclonal antibody; VL SEQ ID NO:13, VH SEQ ID NO:18 (antibody, listed as Mus musculus, V domains shown)
VH: KVQLQQSGAELVKPGASVKLSCKASGYTFTEYILHWVKQKSGQGLEWIGWFYPGNNNIKYNEKFKDKATLTADKSSSTVYMELSRLTSEDSAVYFCARHEQGPGYFDYWGQGTTLTVSS
VL: DIVMTQSHKFMSTSVGDRVSITCKASQDVNTAVAWYQQKPGQSPKLLIYWASTRHTGVPDRFTGSGSGTDYTLTIKSVQAEDLTLYYCQQHYITPWTFGGGTKLEIK
modifications: (1)..(119) Anti-DR5 Antibody mAb 2 Heavy Chain Variable Region; (1)..(107) Anti-DR5 Antibody mAb 2 Light Chain Variable Region
Net Gain (Average % Growth Inhibition) (NCI-N87 [1]): 0.36% | Net Gain (Average % Growth Inhibition) (A549): 6.48% | labeling of cells of normal tissue [2]: failed to label | labeling of cells of lung cancer tissue (lung cancer tissue): strongly label | labeling of cells of colon cancer tissue (colon cancer tissue): strongly label | Net Gain (Average % Growth Inhibition) (PC3): 1.59% | Net Gain (Average % Growth Inhibition) (Calu3): 0.11% | Net Gain (Average % Growth Inhibition) (MDA-MB-361): 5.11% | potency in inducing cytotoxicity versus reference DR5 mAbs [3]: more potent | Net Gain (Average % Growth Inhibition) (HPAFII): 2.86% | Net Gain (Average % Growth Inhibition) (SKOV3): 1.75% | Net Gain (Average % Growth Inhibition) (Hs746T): 0.20% | % Inhibition (Average) (SW48): 2.44% | % Inhibition (Average) (CaKi2): 2.64% | % Inhibition (Average) (MCF7): 3.98% | % Inhibition (Average) (HT29): 0.87% | % Inhibition (Average) (NCI-N87 [4]): 0.67% | % Inhibition (Average) (COLO205): 3.61% | Net Gain (Average % Growth Inhibition) (LNCap): 4.49%

effect of histidine tagged TRAIL on amount bound to immobilized DR5-Fc (DR5-Fc fusion): not affected | amount of immobilized biotinylated antibody (DR5-Fc fusion; 20 μg/mL TRAIL-His): 1.939 | amount of immobilized biotinylated antibody (DR5-Fc fusion; Buffer): 2.118 | Kd [5]: 32.5 nM | ka [5]: 4.0 × 10^6 | kd [5]: 1.3 × 10^−1
B2: DR5 mAb 1: anti-human DR5 monoclonal antibody; VL SEQ ID NO:3, VH SEQ ID NO:8 (antibody, listed as Mus musculus, V domains shown)
VH: EVKFLESGGGLVQPGGSLKLSCVASGFDFSRYWMSWVRQAPGKGLEWIGEINPDSNTINYTPSLKDKFIISRDNAKNTLYLQMTKVRSEDTALYYCTRRAYYGNPAWFAYWGQGTLVTVSS
VL: DIVLTQSPASLAVSLGQRATISCRASKSVSSSGYSYMHWYQQKPGQPPKVLIFLSSNLDSGVPARFSGSGSGTDFTLNIHPVEDGDAATYYCQHSRDLPPTFGGGTKLEIK
modifications: (1)..(121) Anti-DR5 Antibody mAb 1 Heavy Chain Variable Region; (1)..(111) Anti-DR5 Antibody mAb 1 Light Chain Variable Region
Net Gain (Average % Growth Inhibition) (NCI-N87 [1]): 0.12% | Net Gain (Average % Growth Inhibition) (A549): 6.48% | labeling of cells of normal tissue [2]: failed to label | labeling of cells of lung cancer tissue (lung cancer tissue): strongly label | labeling of cells of colon cancer tissue (colon cancer tissue): strongly label | Net Gain (Average % Growth Inhibition) (PC3): 1.59% | Net Gain (Average % Growth Inhibition) (Calu3): 0.11% | Net Gain (Average % Growth Inhibition) (MDA-MB-361): 5.11% | potency in inducing cytotoxicity versus reference DR5 mAbs [3]: more potent | Net Gain (Average % Growth Inhibition) (HPAFII): 1.75% | Net Gain (Average % Growth Inhibition) (SKOV3): 1.75% | Net Gain (Average % Growth Inhibition) (Hs746T): 0.20% | % Inhibition (Average) (SW48): 2.65% | % Inhibition (Average) (CaKi2): 0.55% | % Inhibition (Average) (MCF7): 2.47% | % Inhibition (Average) (HT29): 0.68% | % Inhibition (Average) (NCI-N87 [4]): 1.6% | % Inhibition (Average) (COLO205): 3.5% | Net Gain (Average % Growth Inhibition) (LNCap): 3.81%
